Reference: PMC12014896 (2025)
Substitutions are numbered along the chain they refer to.

B1: COVIC-336 (antibody, V domains shown)
VH: QITLKESGPTLVKPTQTLTLTCTFSGFSLSSGGVGVGWIRQPPGKALEWLALIYWDDDKRYRPSLKSRLTITRDTSTNQVVLTMTNMDPVDTATYFCARHQIATVFDHWGQGTLVTVSS
VL: QSALTQPASVSGSPGQSITISCTGTSSDVGGYNYVSWYQQHPGKAPKLMIYEVSNRPSGVSSRFSGSKSGNTASLTISGLQAEDEADYYCSSYTRSSPLVAFGGGTKVTVL
B2: COVIC-63 (antibody)
chain: QVQLQESGGGLVQAGGSLRLSCAASGRTFSEYAMGWFRQAPGKEREFVATISWSGGSTYYTDSVKGRFTISRDNAKNTVYLQMNSLKPDDTAVYYCAAAGLGTVVSEWDYDYDYWGQGTQVTVSSGGSGGSQVQLQESGGGLVQAGGSLRLSCAASGRTFSEYAMGWFRQAPGKEREFVATISWSGGSTYYTDSVKGRFTISRDNAKNTVYLQMNSLKPDDTAVYYCAAAGLGTVVSEWDYDYDYWGQGTQVTVSSGGGGSGGGGSEPKSCDKTHTCPPCPAPELLGGKKKPLDGEYFTLQIRGRERFEMFRELNEALELKDAQAGKEPG
B3: COVIC-156 (antibody, V domains shown)
VH: EVQLVESGGGLIQPGGSLRLSCAASGVTVSSNYMNWVRQAPGKGLEWVSVIYSGGSTYYADSVKGRFTISRDNSKNTLFLQMNSLRAEDSAVYYCARDLGPYGVDVWGQGTTVTVSS
VL: DIQLTQSPSFLSASVGDRVTITCWASQGISSYLAWYQQKPGKAPKLLIYAASTLQSGVPSRFSGSGSGTEFTLTISSLQPEDFATYYCQELNSYPLTFGQGTRLEIKR
B4: COVIC-32 (antibody, V domains shown)
VH: QVQLLESGGGLVQPGGSLRLSCAASGFTFSSYAMSWVRQAPGKGLEWASAISGSGGSTYYADSVEGRFTISRDNSKNTLYLQMNSLRAEDTAVYYCAKDTGYCGDDCYIKLIRGGPDYWGQGTLVTVSS
VL: DIVMTQSPLSLPVTLGQPASISCRSSQSLVYSDGNTFLNWFQQRPGQSPRRLIYQVSNRDSGVPDRFSGSGSGTDFTLKISRVEAEDVGVYYCMQGTHWPRTFGQGTKLEIK
B5: COVIC-296 (antibody, V domains shown)
VH: EVQLVESGGGLVQPGGSLRLSCAASGITVSSNYMNWVRQAPGKGLEWVSVIYSGGSTFYADSVKGRFTVSRHNSKNTLYLQMNSLRVEDTAVYYCAREGLVGTALAFDYWGQGNLVTVSS
VL: DIQMTQSPSSLSASVGDRVTITCRASQSINNYLNWYQQKPGKAPNLLIYAASSLQSGVPSRFSGSGSGTDFTLTINSLQPEDFATYYCQQSYSTPPYTFGQGTKLEIK
B6: COVIC-238 (antibody, V domains shown)
VH: QVQLVQSGSELKKPGASVKVSCKASGYTFTTYVMNWVRQAPGQGLEWMGWINTNTGNPTYAQGFTGRFVFSLDTSVSTASLQISSLKAEDTAVYYCSSEITTLGGMDVWGQGTTVTVSS
VL: ASYVLTQPPSVSVAPGKTARITCGGNNIGSKSVHWYQQKPGQAPVLVIYYDSDRPSGIPERFSGSNSGNTATLTISGVEAGDEADYYCQVWDSISDHRVFGGGTKLTVLG
B7: COVIC-292 (antibody, V domains shown)
VH: QMQLVQSGPEVKKPGTSVKVSCKASGFTFSGSAVQWVRQARGQRLEWIGWIVVGSGNTNYAQRFQERVTITRDMSTSTAYMELSSLRSEDTAVYYCAAPYCSSTSCRDGFDIWGQGTMVTVSS
VL: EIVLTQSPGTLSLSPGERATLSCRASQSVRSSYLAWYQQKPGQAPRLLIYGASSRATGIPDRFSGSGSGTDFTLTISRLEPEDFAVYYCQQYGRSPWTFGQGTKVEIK
B8: COVIC-322 (antibody)
chain 1: EVQLLESGGGLVQPGGSLRLSCAASGRTFSEYAMGWFRQAPGKGLEFVSTISWSGGSTYYADSVKGRFTISRDNSKNTLYLQMNSLRAEDTAVYYCAAAGLGTVVSEWDYDYDYWGQGTLVTVSSGGGGSGGGGSASTKGPSVFPLAPSSKSTSGGTAALGCLVKDYFPEPVTVSWNSGALTSGVHTFPAVLQSSGLYSLSSVVTVPSSSLGTQTYICNVNHKPSNTKVDKKVEPKSCDKTHTAPELLGGPSVFLFPPKPKDTLMISRTPEVTCVVVDVSHEDPEVKFNWYVDGVEVHNAKTKPREEQYNSTYRVVSVLTVLHQDWLNGKEYKCKVSNKALPAPIEKTISKAKGQPREPQVYTLPPSRDELTKNQVSLTCLVKGFYPSDIAVEWESNGQPENNYKTTPPVLDSDGSFFLYSKLTVDKSRWQQGNVFSCSVMHEALHNHYTQKSLSLSPGKKKKPLDGEYFTLQIRGRERFEMFRELNEALELKDAQAGKEPG
chain 2: EVQLLESGGGLVQPGGSLRLSCAASGRTFSEYAMGWFRQAPGKGLEFVSTISWSGGSTYYADSVKGRFTISRDNSKNTLYLQMNSLRAEDTAVYYCAAAGLGTVVSEWDYDYDYWGQGTLVTVSSGGGGSGGGGSKRTVAAPSVFIFPPSDEQLKSGTASVVCLLNNFYPREAKVQWKVDNALQSGNSQESVTEQDSKDSTYSLSSTLTLSKADYEKHKVYACEVTHQGLSSPVTKSFNRGEC
B9: COVIC-392 (antibody, V domains shown)
VH: QVQLLESGGGLVQPGRSLRLSCAASGFTFDDYAMHWVRQPPGKGLEWVSGSSWNSGSVVYADSVKGRFTISRDSAKNSLHLQMNSLRVEDTALYYCAKAVDPTRGSYSPDYGFDIWGQGTMVTVS
VL: not shown
B10: COVIC-162 (antibody, V domains shown)
VH: QLQLQESGPGLVKPSETLSLTCTVSGGSISNSNYYWGWIRQPPGKGLEWIGSIYYSGRTYYNPSLKSRVTISVDTSKNQFSLKLSSVTAADTAVYYCARMGLLWFGEFYGMDVWGQGTTVTVSS
VL: DIQMTQSPSSLSASVGDRVTITCRASQGISSWLAWYQQKPEKAPKSLIYDASSLQRGVPSRFSGSGSGTDFTLTISSLQPEDFASYYCQQYNSYPLTFGGGTRVEIKR
B11: COVIC-305 (antibody, V domains shown)
VH: QVQLVQSGAEVKKPGSSVRVSCKVSGYTFTGYYMHWVRQAPGQGLEWMGIINPSGGSTSYAQKFQGRVTMTRDTSTSTVYMELSSLRSEDTAVYYCARVRVGASDAFDIWGQGTMVTVSS
VL: SYVLTQPPSVSVAPGQTARITCGGNNIGSKSVHWYQQKPGQAPVLVVYDDSDRPSGIPERFSGSNSGNTATLIISRVEAGDEADYYCQVWDSSSVHYVFGTGTKLTVLG
B12: COVIC-265 (antibody, V domains shown)
VH: QVQLVESGGGLVQPGGSLRLSCTVSGIDLSSYAMGWVRQAPGKGLEYIGIISGSGSTDYANWAKGRFTISRDNSKNTLYLQMNSLRAEDTAVYYCARAGYGVYGYAKYYGMDPWGQGTLVTVSS
VL: DIQMTQSPSSLSASVGDRVTITCKASEDIHYGLNWYQQKPGKAPKLLIYGATTLESGVPSRFSGSGSGTDFTLTISSLQPEDFATYYCQQGYSTPLTFGGGTKVEIK
B13: COVIC-333 (antibody, V domains shown)
VH: QVQLVQSGAEVKKPGSSVRVSCKASGGTFISYTFNWVRQAPGQGLEWMGRIIPIFGIVNYAQKFQGRVTIAADKSTSTAYMELSSLRSEDTAMYYCATATVDYDSGEEQSSFDPWGQGTLVTVSS
VL: EIVLTQSPGTLSLSPGERATLSCRASQSVSSSYLAWYQQKAGQTPRLLIYAASSRATGVPDRFSGSGSGTDFTLTISRLEAEDFAVYYCQQSWTFGQGTKVEIK
B14: COVIC-312 (antibody)
chain 1: QVQLVQSGAEVKKPGSSVKVSCKASGGTFGISWVRQAPGQGLEWMGRIIPILGTANHAQKFQGRVTITADKSTGTVYMELSSLRSEDTAVYYCARDGDSGSYYETLGFDYWGQGTLVTVSSGGGGSGGGGSGGGGEVQLVESGGGLVKPGGSLRLSCAASGFTFSPYSMNWVRQAPGKGLEWVSSISVSNIYTYYADSVKGRFTISRDNAKNSLYLQMNSLRAEDTAIYYCARDLKKGGIQYDAFDIWGQGTVVTVSS
chain 2: QSALTQPPSASGSPGQSVTISCTGTSSDVGGYNYVSWYQQHPGKAPKLMIYEVNKRPSGVPDRFSGSKSGNTASLTVSGLQAEDEADYYCSSYAGSNNLVFGGGTKLTVLGGGGSGGGGSGGGGEIVLTQSPATLSLSPGERATLSCRASQSVNDYLAWYQQKPGQAPRLLIYDASNRATGFPARFSGSGSGTDFTLTISSLEPEDFAVYYCQQRSNWPPTFGQGTRLEIK
B15: COVIC-22 (antibody, V domains shown)
VH: EVQLLESGGGLVQPGGSLRLSCAASGFTFSRHAMNWVRQAPGKGLEWVSGISGSGDETYYADSVKGRFTISRDNSKNTLYLQMNSLRAEDTAVYYCARDLPASYYDSSGYYWHNGMDVWGQGTLVTVSS
B16: COVIC-121 (antibody)
chain: QVQLQESGGGLVQAGGSLRLSCAASGRTFSEYAMGWFRQAPGKEREFVATISWSGGSTYYTDSVKGRFTISRDNAKNTVYLQMNSLKPDDTAVYYCAAAGLGTVVSEWDYDYDYWGQGTQVTVSSGGSGGSQVQLQESGGGLVQAGGSLRLSCAASGRTFSEYAMGWFRQAPGKEREFVATISWSGGSTYYTDSVKGRFTISRDNAKNTVYLQMNSLKPDDTAVYYCAAAGLGTVVSEWDYDYDYWGQGTQVTVSSGGGGSGGGGSKKKPLDGEYFTLQIRGRERFEMFRELNEALELKDAQAGKEPGGGGGSGGGGSQVQLQESGGGLVQAGGSLRLSCAASGRTFSEYAMGWFRQAPGKEREFVATISWSGGSTYYTDSVKGRFTISRDNAKNTVYLQMNSLKPDDTAVYYCAAAGLGTVVSEWDYDYDYWGQGTQVTVSS
B17: COVIC-153 (antibody, V domains shown)
VH: EVQLVESGGGLIQPGGSLRLSCAASGLTVSSNYMSWVRQAPGKGLEWVSIIYSGGSTYYADSVKGRFTISRDNSKNTLYLQMNSLRAEDTAVYYCARLGGYYYYGMDVWGQGTTVTVSS
VL: DIQMTQSPSSLSASVGERVTITCQASQDIRNYLNWYQKKPGKAPKLLIYDSSNLETGVPSRFSGSGSGTDFTFTISSLQPEDIATYYCQQYDNLPITFGQGTRLEIKR
B18: COVIC-142 (antibody, V domains shown)
VH: EVQLVESGGGLIQPGGSLRLSCAASGFTVSSNYMSWVRQAPGKGLEWVSVIYSGGSTYYADSVKGRFTISRDNSKNTLYLQMNSLRAEDTAVYYCARHITMVRGVIIYLKEWGQGTLVTVSS
VL: DIVMTQSPSSLSASVGDRVTITCQASQDISNYLNWYQQKPGKAPKLLIYDASNLETGVPSRFSGSGSGTDFTFTISSLQPEDIATYYCQQCDNLPITFGQGTRLEIK
B19: COVIC-131 (antibody, V domains shown)
VH: EVQLVESGGGVVQPGRSLRLSCAASAFTFSSYDMHWVRQAPGKGLEWVAVISYDGSNKYYADSVKGRFTISRDNSKNTLYLQMNSLRAEDTAVYYCAKDGGKLWVYYFDYWGQGTTVTVSS
VL: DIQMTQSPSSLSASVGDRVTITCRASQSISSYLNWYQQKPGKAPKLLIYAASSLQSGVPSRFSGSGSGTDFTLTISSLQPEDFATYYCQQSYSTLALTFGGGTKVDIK
B20: COVIC-167 (antibody, V domains shown)
VH: B17 VH
VL: B17 VL with S65G

Molecular target: SARS-CoV-2 spike RBD (Wuhan-Hu-1) (Severe acute respiratory syndrome …, UniProt P0DTC2)
Assay: SPR

Binder	Kd [nM]
B1	2.14
B2	185
B3	0.446
B4	1.76
B5	0.501
B6	0.873
B7	6.71
B8	30.2
B9	0.0871
B10	191
B11	7.27
B12	1.55
B13	0.0111
B14	0.347
B15	0.414
B16	195
B17	2.06
B18	16.5
B19	2.05
B20	1.87
